{"source": "the nanobody polyreactivity screen of Harvey et al. (2022)"}
{"assay": "yeast display, Sf9 membrane polyspecificity reagent, FACS + sequencing; frameworks hold sequencing errors", "summary_of_the_method": "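A synthetic nanobody library was expressed on Saccharomyces cerevisiae BJ5465 by galactose induction for 36–48 hours. The library was stained for 1 hour at 4 °C with 10% biotinylated, detergent-solubilized Sf9 membrane reagent and enriched with streptavidin microbeads before FACS. Low and high (top ~1%) gates were set on anti-HA fluorescence for expression and streptavidin fluorescence for reagent binding, and each polyreactivity label reflects the gate of origin.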"}
{"sequence": "QVQLVESGGGLVQAGGSLRLSCAASGRTFSGYAMGWYRQATGKERELVAAITRRGGTTYYADSVKGRFTISRDNAKNTVYLQMNSLKPEDTAVYYCAAAKPRVISQNIIYDYWGQGTQVTVSS", "polyreactivity (PSR sort gate)": "high polyreactivity"}
{"sequence": "QVQLVESGGGLVQAGGSLRLSCAASGRTFSGYVMGWYRQAPGKERELVATINGSGASTYYADSVKGRFTISRDNAKNTVYLQMNSLKPEDTAVYYCNKYPAHYQTRRYDYWGQGTQVTVSS", "polyreactivity (PSR sort gate)": "high polyreactivity"}
{"sequence": "QVQLVESGGGLVQAGGSLRLSCAASGRTFSIYAMGWYRQAPGKERELVAAISNGGRTKYADSVKGRFTISRDNAKNTVYLQMNSLKPEDTAVYYCNALAYNVPRYDYWGQGTQVTVSS", "polyreactivity (PSR sort gate)": "high polyreactivity"}
{"sequence": "QVQLVESGGGLVQAGGSLRLSCAASGRTFSIYAMGWYRQAPVKERELVAAISNGGRTKYADSVKGRFTISRDNAKNTVSLQMNSLKPEDTAVYYCAKRTYSRKFRGAYNYWGQGTQVTVSS", "polyreactivity (PSR sort gate)": "high polyreactivity"}
{"sequence": "QVQLVESGGGLVQAGGSLRLSCAASGRTFSKYAMGWYRQAPGKERELVASISSDGRTYYADSVKGRFTISRDNAKNTVYLQMNRLKPEDTAVYYCAAKEWYFPTWYTYYERDYWGQGTQVTVSS", "polyreactivity (PSR sort gate)": "high polyreactivity"}
{"sequence": "QVQLVESGGGLVQAGGSLRLSCAASGRTFSKYTMGWYRQATGKERELVAVISRSGTRTYYADSVKGRFTISRDNAKNTVYLQMNSLKREDTAVYYCAAKDERRSFGMGYWGQGTQVTVSS", "polyreactivity (PSR sort gate)": "high polyreactivity"}
{"sequence": "QVQLVESGGGLVQAGGSLRLSCAASGRTFSLYAMGWYRQAPGKERELVAGIDWSGGSTYYADSVKGRFTISRDNAKNTVYLQMNSLKPEDTAVYYCAAKYVWVSKASKDYDYWGQGTQVTVSS", "polyreactivity (PSR sort gate)": "low polyreactivity"}
{"sequence": "QVQLVESGGGLVQAGGSLRLSCAASGRTFSNNVMGWYRQAPGKERELVAAISGRGGRTYYADSVKGRFTISRDNAKNTVYLQMNSLKPEDTAVYYCAAGAYWPDEYWGQGTQVSVSS", "polyreactivity (PSR sort gate)": "high polyreactivity"}
{"sequence": "QVQLVESGGGLVQAGGSLRLSCAASGRTFSNYAMGWYRQAPGKERELVAAITGSGGSTYYADSVKGRFTISRDNAKNTVYLQLISLKPEDTAVYYCNAYRASKYLTGNGHDYWGQGTQVTVSS", "polyreactivity (PSR sort gate)": "low polyreactivity"}
{"sequence": "QVQLVESGGGLVQAGGSLRLSCAASGRTFSNYAMGWYRQAPGKERELVAAITGSGGSTYYADSVKGRFTISRDNAKNTVYLQMHSLKPEDTAVYYCNAYRASKYLTGNGHDYWGQGTQVTVSS", "polyreactivity (PSR sort gate)": "low polyreactivity"}
{"sequence": "QVQLVESGGGLVQAGGSLRLSCAASGRTFSPYALGWSRKAPGKERELVAAITSRGSNTFYADSVKGRFTISRDNAKNTVYLQMNSLKPEDTAVYYCNKYTIVSRYDYWGQGTQVTVSS", "polyreactivity (PSR sort gate)": "high polyreactivity"}
{"sequence": "QVQLVESGGGLVQAGGSLRLSCAASGRTFSPYAMGWYRQAPGKERELVAAISWIGGSTYYADSVKGRFTISRDNAKNTVYLQMNSLKPEDTAVYYCAADKSVFSDSHAVSMIYRYDYWGQGTQVTVSS", "polyreactivity (PSR sort gate)": "low polyreactivity"}
{"sequence": "QVQLVESGGGLVQAGGSLRLSCAASGRTFSPYAMGWYRQAPGKERELVAAITSRGASTYYADSVKGRFTISRDNAKNTVYLQINSLKPEDTAVYYCNSGRTYRRLGDYWGQGTQVTVSS", "polyreactivity (PSR sort gate)": "high polyreactivity"}
{"sequence": "QVQLVESGGGLVQAGGSLRLSCAASGRTFSQYAMGWYRQAPGKERELVAAISRGGGSTYYADSVKGRFTISRDNAKNTVYLQMNSLKPEDTAVYYCARATYFYYPFGSWGQGTQVTVSS", "polyreactivity (PSR sort gate)": "high polyreactivity"}
{"sequence": "QVQLVESGGGLVQAGGSLRLSCAASGRTFSRNAMGWYRQAPGKEREFVASISRSGTSTYYADSVKGRFTISRDNAKNTVYLHMNSLKPEDTAVYYCAKTYASSQGYDYWGLGTQVTVSS", "polyreactivity (PSR sort gate)": "high polyreactivity"}
{"sequence": "QVQLVESGGGLVQAGGSLRLSCAASGRTFSRNAMGWYRQAPGKEREFVASISRSGTSTYYADSVKGRFTISRDNAKNTVYLQMNSLKPEDTAVYYCAKTYASSQGYDYWGQGTQVTVSS", "polyreactivity (PSR sort gate)": "high polyreactivity"}
{"sequence": "QVQLVESGGGLVQAGGSLRLSCAASGRTFSRNAMGWYRQAPGKERELVAAITYSGGTTYYADSVKGRFTISRDNAKNTVYLQMNSLKPEDTAVYYCATPSRKSGVGYPSYNYWGQGTQVTVSS", "polyreactivity (PSR sort gate)": "high polyreactivity"}
{"sequence": "QVQLVESGGGLVQAGGSLRLSCAASGRTFSRNAMGWYRQAPGKERELVATITSDGSTNYADSVKGRFTISRDNAKNTVYLQMNSLKPEDTAVYYCAAGEQSSIIGAHDYWGQGTQVTVSS", "polyreactivity (PSR sort gate)": "low polyreactivity"}
{"sequence": "QVQLVESGGGLVQAGGSLRLSCAASGRTFSRYAMGCYRQAPGKERELVAVITSSGASTYYADSVKGRFTISRDNAKNTVYLQMNSLKPEDTAVYYCAADRYYRGRRMNYWRQGTQVTVSS", "polyreactivity (PSR sort gate)": "high polyreactivity"}
{"sequence": "QVQLVESGGGLVQAGGSLRLSCAASGRTFSRYAMGWYRQAPGKERELVAAITSGGGSTYYADSVKGRFTISRDNAKNTVYLQMNSLKPEDTAVYYCAARTSGDGWIYYYWGQGTQVTVSS", "polyreactivity (PSR sort gate)": "high polyreactivity"}
{"sequence": "QVQLVESGGGLVQAGGSLRLSCAASGRTFSRYAMGWYRQAPGKERELVAGISRSGTSTYYADSVKGRFTFSRDNAKNTVYLQMNSLKPEDTAVYYCAAYYEYRRDYWGQGTQVTVSS", "polyreactivity (PSR sort gate)": "high polyreactivity"}
{"sequence": "QVQLVESGGGLVQAGGSLRLSCAASGRTFSRYAMGWYRQAPGKERELVASMTRRGGRTYYADSVKGRFTISRDNAKNTVYFQMTSLKPEDTAGYYCNATSQIPWSSYYYWGQGTQVTVSS", "polyreactivity (PSR sort gate)": "high polyreactivity"}
{"sequence": "QVQLVESGGGLVQAGGSLRLSCAASGRTFSRYVMGWYRQAPGKERELVAAISRTGGRTYYADSVKGRFTISRDNAKNTVYLQMNSLKPEDTAVYYCNAGTVLISTYDYWGQGTQVTVSS", "polyreactivity (PSR sort gate)": "high polyreactivity"}
{"sequence": "QVQLVESGGGLVQAGGSLRLSCAASGRTFSSYAMGWYRQAPGKERELVARISSSGGRTSYADSVKGRFTISRDNAKNTVYLQMKSLKPEDTAVYYCAKTYHWLYDYWGQGTQVTVSS", "polyreactivity (PSR sort gate)": "high polyreactivity"}
{"sequence": "QVQLVESGGGLVQAGGSLRLSCAASGRTFSSYTMGWYRQAPGKERELVASITNNGGSTYYADSVKGRFTISRDNEKNTVYLQMNSLKPEDTAGYYCNANSRVGLQDKKPRDYDGYDSWGQGTQVTVSS", "polyreactivity (PSR sort gate)": "low polyreactivity"}
{"sequence": "QVQLVESGGGLVQAGGSLRLSCAASGRTFSTNAMGWYIQAPGKEREFVAAITGSGGSTYYADSVKGRFTISRDNAKNTVYLQMNSLKPEDTAVYYCAADRPGSRFIDVDYWGQGTQVTVSS", "polyreactivity (PSR sort gate)": "high polyreactivity"}
{"sequence": "QVQLVESGGGLVQAGGSLRLSCAASGRTFSTYAMGWYRQAPGKEREMVAAISSGGGRTYYADSVKGRFTISRDYAKNTVYLQMNSLKPEDTAVYYSAADGYLRSRHGDYWGQGTQVTVSS", "polyreactivity (PSR sort gate)": "low polyreactivity"}
{"sequence": "QVQLVESGGGLVQAGGSLRLSCAASGRTFSVYALGWYRPAPGKERELVAGITSGGSTNYADSVKGRFTMSRDNAKNTVYLQMNILKPEDTADYSCASENVYAVFLFVSIGDYWGQGTQETVSS", "polyreactivity (PSR sort gate)": "low polyreactivity"}
{"sequence": "QVQLVESGGGLVQAGGSLRLSCAASGRTFSVYAMGWYRQAPGKERELVAAIRTSGGITYYADSVKGRFTISRDNAKNTVYLQMNSLKPEDTAVYYCAAETFRHYSYTRYYYWGQGTQVTVSS", "polyreactivity (PSR sort gate)": "high polyreactivity"}
{"sequence": "QVQLVESGGGLVQAGGSLRLSCAASGRTFSVYAMGWYRQAPGKERELVARIRWSSGITYYADSVKGRFTISRDNAKNTVYLQMNSLKPEDTAVYYCAARYYTSATMDYWGQGTQVTVSS", "polyreactivity (PSR sort gate)": "high polyreactivity"}
{"sequence": "QVQLVESGGGLVQAGGSLRLSCAASGRTFSVYSMGWYRQAPGKERDLVAGITGNGGSTYYADSVKGSFTISRDNAKNTVYLQMNSLKPEDTAVYYCATAYWVIITRGEYGYCGQGTQVTVSS", "polyreactivity (PSR sort gate)": "low polyreactivity"}
{"sequence": "QVQLVESGGGLVQAGGSLRLSCAASGRTFSWYAMGWYRQAPGKERELVAAITRDGGNTYYADSVKGRFTISRDHAKNTVYLQMNSLKPEDTAVYYCAKRGYVNYYCGQGTQVTVSS", "polyreactivity (PSR sort gate)": "high polyreactivity"}
{"sequence": "QVQLVESGGGLVQAGGSLRLSCAASGRTFSWYVMGLYRQAPGKERELVAAINSNSGSTYYADSVKGRFTISRDNAKNTVYLQMNSLKPEDTAVYYCAARAKRYNVRFDYWGQGTQVTVSS", "polyreactivity (PSR sort gate)": "high polyreactivity"}
{"sequence": "QVQLVESGGGLVQAGGSLRLSCAASGRTFSYNAMGWYRQAPGKERELVAAINGDGGSTYYADSVKGRFTISRDNAKNTVYLQMNSLKPEDTAVYYCNRPRIYRYGYWGQGTQVTVSS", "polyreactivity (PSR sort gate)": "high polyreactivity"}
{"sequence": "QVQLVESGGGLVQAGGSLRLSCAASGRTFSYNAMGWYRQAPGKERELVAVISASGGRTNYADSVKGRFTISRDNAKNTVYLQMNSLKPEDTAVYYCNALFGLGVKGYDYWGQGTQVTVSS", "polyreactivity (PSR sort gate)": "low polyreactivity"}
{"sequence": "QVQLVESGGGLVQAGGSLRLSCAASGRTFSYNTMGWYRQAPGKERELVASISGSGGRTYYADSVKGRFTISRDNAKNTVYLQMNSLKPEDTAVYYCAARRYSRDYDYWGQGTQVTVSS", "polyreactivity (PSR sort gate)": "high polyreactivity"}
{"sequence": "QVQLVESGGGLVQAGGSLRLSCAASGRTFSYYAMGLYRQAPGKEREFVAAITWRGSSTYYADSVKGRFTISRDNAKNTVYLQMNSLKPEDTAVYYCNARATNVIWGRYDYWGQGTQVTVSS", "polyreactivity (PSR sort gate)": "high polyreactivity"}
{"sequence": "QVQLVESGGGLVQAGGSLRLSCAASGRTFSYYAMGWYIQAPGKERELVAAITWSGASTYYADSVKGRFTISRDNAKNTVYLQMNSLKPEDTAVYYCNAGWDSGIVQSDETVYKYDYWGQGTQVTVSS", "polyreactivity (PSR sort gate)": "low polyreactivity"}
{"sequence": "QVQLVESGGGLVQAGGSLRLSCAASGRTFSYYAMGWYRQAPGKERELVAAISQRGGSTYYADSVKGRFTISRDNAKNTVYLQMNSLKPEDTAVYYCAVLVSRYRYRVLDDYWGQGTQVTVSS", "polyreactivity (PSR sort gate)": "high polyreactivity"}
{"sequence": "QVQLVESGGGLVQAGGSLRLSCAASGRTFSYYAMGWYRQAPGKERELVAAISRAGRTNYADSVKGRFTISRDNAKNTVYLQMHSLKPEDTAVYYCAADLAYGRPFVSYRTRDWGQGTQVTVSS", "polyreactivity (PSR sort gate)": "high polyreactivity"}
{"sequence": "QVQLVESGGGLVQAGGSLRLSCAASGRTFSYYAMGWYRQAPGKERELVAAITSRGSSTYYADSVKGRFTISRDNAKNTVYLQMNSLKPEDTAVYYCAKVRPYLDTNEYYYWGQGTQVTVSS", "polyreactivity (PSR sort gate)": "high polyreactivity"}
{"sequence": "QVQLVESGGGLVQAGGSLRLSCAASGRTFSYYAMGWYRQAPGKERELVATIRFSGGGTYYADSVKGRFTISRDNAKNTVYLQMNSLKPEDTAVYYCNADSIDPFLYDYWGQGTQVTVSS", "polyreactivity (PSR sort gate)": "low polyreactivity"}
{"sequence": "QVQLVESGGGLVQAGGSLRLSCAASGRTFSYYTMVWYRQAPGKERELVARISNRGTNTYYADSVKGRFTISRDNAKNTVYLQMNSLKPEDTAVYYCAKYYYTSIVGYDSWGQGSQVTVSS", "polyreactivity (PSR sort gate)": "low polyreactivity"}
